This note sets out measurements from patent publication US20240025997A1 (NGM BIOPHARMACEUTICALS, published 2024).

Assay [1] concerns the target T1, human ILT4 chimeric reporter receptor (ILT4 extracellular domain fused to PILRbeta … (human, UniProt Q8N423 22-460)).
T1 construct: On the surface of NFAT-GFP reporter cells; associates with DAP12; also called ILT4 reporter cells; Human ILT4 reporter construct; not shown: The PILRbeta transmembrane/intracellular domain
Nature of the assay: reporter cell assay (not a direct binding assay): human ILT4 reporter cells co-cultured with Raji cells, %GFP+ by FACS. As for the experimental part:
(§1) The ability of anti-ILT2/ILT4 antibodies to inhibit the interaction between ILT2 and/or ILT4 and MHC I molecules was evaluated using a reporter cell system. […] In this chimeric receptor system, the extracellular domain of the receptor of interest (e.g., ILT2 or ILT4) is fused with the transmembrane/intracellular domain of PILRβ that associates with the adaptor protein DAP12. When the chimeric receptor (e.g., ILT2 or ILT-4) is activated by binding to a ligand (e.g., MHC I molecule), DAP12 becomes phosphorylated and activates an NFAT-responsive promoter which drives GFP expression (see, e.g., Deng et al., 2014, Blood, 124:924-935).
(§2) Reporter cells were washed after staining and resuspended at 1×10⁶ cells/ml in X-VIVO™ 15 media (Lonza). […] For assays with Raji cells: anti-ILT2 antibody 27F9, anti-ILT4 antibody 48A5, anti-ILT2/ILT4 antibody 73D1 and Hz73D1.v1, and a control antibody were serially diluted and 50 μl was added to each well of a 96-well flat-bottom cell culture plate. […] The plates were incubated overnight at 37° C. The next day, reporter cells were assayed for GFP expression by FACS.
For orientation: A flow cytometer gives signals particle by particle.

In assay [2] the target is T2, soluble human ILT4-ECD (human, UniProt Q8N423 22-460).
T2 construct: also called LILRB2 extracellular domain
T2 sequence (Q8N423 other isoform, or with tags, fused parts or gaps): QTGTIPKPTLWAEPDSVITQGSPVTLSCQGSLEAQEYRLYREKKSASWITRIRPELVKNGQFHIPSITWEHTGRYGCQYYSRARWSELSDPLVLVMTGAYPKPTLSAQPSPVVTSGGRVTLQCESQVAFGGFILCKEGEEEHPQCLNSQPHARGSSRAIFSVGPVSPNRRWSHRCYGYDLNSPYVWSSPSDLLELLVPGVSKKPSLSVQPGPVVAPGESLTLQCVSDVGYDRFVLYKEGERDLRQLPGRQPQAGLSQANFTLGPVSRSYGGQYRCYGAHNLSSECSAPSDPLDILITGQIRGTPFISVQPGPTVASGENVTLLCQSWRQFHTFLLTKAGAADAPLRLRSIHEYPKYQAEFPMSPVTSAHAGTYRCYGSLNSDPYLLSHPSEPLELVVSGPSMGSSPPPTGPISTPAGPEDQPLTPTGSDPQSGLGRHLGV
In words: Biacore competition: antibody titrated against 20 nM ILT4-ECD, mixture injected over biotinylated HLA-A*1101 on a NeutrAvidin chip. Here is the method: (§3) As part of the characterization process, the ability of exemplary antibodies to inhibit or block the interaction of ILT2 or ILT4 with their natural ligands was evaluated in competition experiments using a Biacore system. As described herein, the natural ligands of ILT2 and ILT4 include, but are not limited to, HLA class I molecules, including HLA-A, HLA-B, HLA-C, HLA-E, and HLA-G. Biotinylated HLA-A*1101 was captured in high amounts on a NeutrAvidin chip surface. Antigen-antibody complexes were prepared with (i) ILT2-ECD and anti-ILT2 antibody 27F9, anti-ILT4 antibody 48A5, or anti-ILT2/ILT4 antibody Hz73D1.v1 and (ii) ILT4-ECD and anti-ILT2 antibody 27F9, anti-ILT4 antibody 48A5, or anti-ILT2/ILT4 antibody Hz73D1.v1. The antibody concentration of each antibody was titrated from 0.09-100 nM and the concentration of human ILT2-ECD or ILT4-ECD was kept constant at 20 nM. The complexes were mixed in a 96-well microplate and each was injected onto the HLA-A-coated chip surface. The measured signal (response unit, RU) was plotted against the antibody concentration.
For orientation: In SPR one partner is held on a chip, and binding of the other changes the refractive index at the surface.

Another assay concerns the target T3, human ILT4 on cells (human, UniProt Q8N423 22-597).
T3 construct: also called LILRB2; human ILT4 expressed on 293T cells
Nature of the assay: flow cytometry, fluorescently labelled antibody on immune cell subsets of PBMC / red-cell-depleted whole blood. Here is the method: (§4) Flow cytometry analysis of blood immune cells was performed on human and cyno PBMC and whole blood. PBMC were prepared from a leukopak (Allcells Inc.) by centrifugation through ficoll, washing with PBS and freezing in cryopreservation buffer in liquid nitrogen until use. Whole blood (Allcells Inc.) was obtained fresh and red blood cells (RBC) depleted using ammonium chloride RBC lysing solution (Biolegend). PBMC or whole blood samples were stained with a fluorescently labeled antibody panel to distinguish various immune subsets (monocytes, B cells, NK cells, CD4+ and CD8+ T cells, neutrophils and eosinophils). Samples were further stained with fluorescently labeled isotype, 27F9 (ILT2 specific), 48A5 (ILT4 specific), 73D1, and Hz73D1.v1. The number of ILT2 and ILT4 molecules per cell of each immune subset was estimated by incubation with Quantum Simply Cellular microspheres followed by flow cytometry analysis.

The target in the next assay is Human ILT2-Fc (human, UniProt Q8NHL6 24-461, limits assumed). In words: SPR (Biacore) competition: blocking of human ILT2-Fc binding to HLA-A, 25 C. As for the experimental part:
(§5) In addition to the reporter cell system, the inhibitory activity of anti-ILT2/ILT4 antibodies towards the interaction between ILT2 and MHC I molecules, and the interaction between ILT4 and MHC I molecules was evaluated using the Biacore system. Human ILT2-Fc and ILT4-Fc were used as target receptors and their interaction with an exemplary MHC-I molecule (HLA-A) was assayed in the presence or absence of an exemplary anti-ILT2/ILT4 antibody Hz73D1.v1 at 25° C. Anti-human ILT2 (clone 27F9) or ILT4 (clone 48A5) antibodies were used as tool reagents to dissect ILT2- and ILT4-specific blocking activities. Anti-IL2/ILT4 antibodies produced a dose-dependent reduction in the interaction between ILT2 and HLA-A, as well as between ILT4 and HLA-A. IC50s of the antibodies tested are shown in Table 16.

Assay [3] deals with T4, soluble human ILT2-ECD (human, UniProt Q8NHL6 24-461).
T4 construct: also called LILRB1 extracellular domain
T4 sequence (Q8NHL6 24-461): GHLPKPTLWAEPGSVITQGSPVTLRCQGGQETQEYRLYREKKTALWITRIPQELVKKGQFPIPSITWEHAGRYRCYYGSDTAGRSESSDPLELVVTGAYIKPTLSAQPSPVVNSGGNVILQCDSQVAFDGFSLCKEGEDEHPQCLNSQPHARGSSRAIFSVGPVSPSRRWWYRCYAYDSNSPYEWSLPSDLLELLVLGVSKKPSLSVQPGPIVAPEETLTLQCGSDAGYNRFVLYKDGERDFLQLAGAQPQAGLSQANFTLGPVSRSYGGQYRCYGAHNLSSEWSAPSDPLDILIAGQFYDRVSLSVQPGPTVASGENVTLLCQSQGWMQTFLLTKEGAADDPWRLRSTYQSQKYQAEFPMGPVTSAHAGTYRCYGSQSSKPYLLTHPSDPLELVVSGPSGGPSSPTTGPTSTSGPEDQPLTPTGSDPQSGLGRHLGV
Nature of the assay: Biacore competition: antibody titrated against 20 nM ILT2-ECD, mixture injected over biotinylated HLA-A*1101 on a NeutrAvidin chip; blocked ligand HLA-A*1101. Here is the method:
as §3

Assay [4] has as its target T4, soluble human ILT2-ECD. In words: SPR (Biacore), antibody captured on Protein A chip, soluble ILT-ECD injected (1.6-200 nM), 25 C. Here is the method: (§6) The binding affinities of anti-ILT2 and anti-ILT4 antibodies were measured using a Biacore system (GE Healthcare LifeSciences). Equilibrium dissociation constant (KD) measurements were carried out with purified antibodies to evaluate their binding to human ILT2, human ILT4, and rhesus ILT2. Briefly, purified anti-ILT2 antibody 27F9, anti-ILT4 antibodies 47C8 and 48A5, and anti-ILT2/ILT4 antibodies 47H6, 51A1, 64A12, 73C4, and 73D1 were captured on a Sensor Chip Protein A (GE HealthCare). The surface of the Biacore Sensor Chip Protein A consists of a carboxymethylated dextran matrix with a recombinant Protein A variant covalently attached. Soluble human ILT2-ECD, human ILT4-ECD, or rhesus ILT2-ECD were injected at a flow rate of 30 μL/min at 25° C. The ILT2 or ILT4 proteins were used at concentrations ranging from 1.6-200 nM in PBS-P buffer with 2 fold dilutions. Kinetic data were collected over time and fit using the simultaneous global fit equation to yield affinity constants (KD values) for each antibody.

Assay [5] concerns the target T5, human ILT2 on cells (human, UniProt Q8NHL6 24-650). Nature of the assay: cell-based or functional assay.
Assay [6] concerns the target T4, soluble human ILT2-ECD. Nature of the assay: SPR (Biacore), antibody captured on Protein A chip, soluble human ILT2-ECD injected, 25 C. Here is the method: as §6
The target in assay [7] is T2, soluble human ILT4-ECD. Nature of the assay: SPR (Biacore), antibody captured on Protein A chip, soluble ILT-ECD injected (1.6-200 nM), 25 C. Here is the method:
as §6

Assay [8] deals with T2, soluble human ILT4-ECD. In words: Biacore competition: antibody titrated against 20 nM ILT4-ECD, mixture injected over biotinylated HLA-A*1101 on a NeutrAvidin chip; blocked ligand HLA-A*1101. As for the experimental part: as §3
In assay [9] the target is T4, soluble human ILT2-ECD. Nature of the assay: Biacore competition: antibody titrated against 20 nM ILT2-ECD, mixture injected over biotinylated HLA-A*1101 on a NeutrAvidin chip. As for the experimental part:
as §3

For assay [10], the target named is T5, human ILT2 on cells. In words: flow cytometry, fluorescently labelled antibody on immune cell subsets of PBMC / red-cell-depleted whole blood. As for the experimental part:
as §4

In assay [11] the target is T6, human ILT2 chimeric reporter receptor (ILT2 extracellular domain fused to PILRbeta … (human, UniProt Q8NHL6 24-461)).
T6 construct: On the surface of NFAT-GFP reporter cells; associates with DAP12; also called ILT2 reporter cells; Human ILT2 reporter construct; not shown: The PILRbeta transmembrane/intracellular domain
T6 sequence (Q8NHL6 24-461 limits assumed, change not shown): as the sequence (Q8NHL6 24-461) above
Nature of the assay: reporter cell assay (not a direct binding assay): human ILT2 reporter cells co-cultured with Raji cells, %GFP+ by FACS. As for the experimental part:
as §1, §2

A further assay concerns the target Human ILT4-Fc (human, UniProt Q8N423 22-460). Nature of the assay: SPR (Biacore) competition: blocking of human ILT4-Fc binding to HLA-A, 25 C. Here is the method: as §5

T3 sequence (Q8N423 other isoform, or with tags, fused parts or gaps): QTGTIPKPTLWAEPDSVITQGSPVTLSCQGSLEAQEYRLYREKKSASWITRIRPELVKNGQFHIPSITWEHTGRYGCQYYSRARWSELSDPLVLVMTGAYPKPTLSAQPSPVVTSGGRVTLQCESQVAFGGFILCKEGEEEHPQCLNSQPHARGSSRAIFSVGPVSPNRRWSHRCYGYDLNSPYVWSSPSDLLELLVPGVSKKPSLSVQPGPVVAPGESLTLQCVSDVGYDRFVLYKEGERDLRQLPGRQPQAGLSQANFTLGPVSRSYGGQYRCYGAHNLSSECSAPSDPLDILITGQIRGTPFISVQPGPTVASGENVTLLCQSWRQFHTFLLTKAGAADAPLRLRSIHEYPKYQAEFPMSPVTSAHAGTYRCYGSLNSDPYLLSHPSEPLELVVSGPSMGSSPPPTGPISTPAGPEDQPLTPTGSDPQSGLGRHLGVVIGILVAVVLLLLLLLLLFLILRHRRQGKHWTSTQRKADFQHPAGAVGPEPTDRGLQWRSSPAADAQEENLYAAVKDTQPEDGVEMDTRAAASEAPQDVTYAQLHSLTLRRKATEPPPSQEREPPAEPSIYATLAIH
T5 sequence (Q8NHL6 24-650): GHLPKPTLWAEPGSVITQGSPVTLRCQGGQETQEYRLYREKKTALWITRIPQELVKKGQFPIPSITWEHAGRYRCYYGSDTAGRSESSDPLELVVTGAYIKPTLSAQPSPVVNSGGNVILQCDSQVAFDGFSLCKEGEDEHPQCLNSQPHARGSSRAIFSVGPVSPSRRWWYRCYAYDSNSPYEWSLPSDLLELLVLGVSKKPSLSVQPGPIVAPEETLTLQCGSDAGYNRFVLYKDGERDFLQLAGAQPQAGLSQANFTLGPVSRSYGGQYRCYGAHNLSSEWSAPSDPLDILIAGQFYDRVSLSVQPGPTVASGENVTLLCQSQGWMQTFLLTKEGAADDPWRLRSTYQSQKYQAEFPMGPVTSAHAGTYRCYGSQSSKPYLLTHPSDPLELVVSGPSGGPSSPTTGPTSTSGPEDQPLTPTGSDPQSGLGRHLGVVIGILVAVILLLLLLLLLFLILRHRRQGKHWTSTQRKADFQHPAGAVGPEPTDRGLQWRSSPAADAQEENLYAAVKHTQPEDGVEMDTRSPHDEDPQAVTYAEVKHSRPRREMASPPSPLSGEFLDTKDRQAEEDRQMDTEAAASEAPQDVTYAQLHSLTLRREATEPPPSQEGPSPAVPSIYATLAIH
Sequence of Human ILT2-Fc (Q8NHL6 24-461 limits assumed): as the sequence (Q8NHL6 24-461) above

B1: anti-ILT2 antibody 27F9 (antibody, V domains shown)
VH: QVQLKESGPGLVAPSQSLSITCTVSGFSLTNYGVSWVRQPPGKGLEWLGIIWGDGSTNYHSALISRLSISKDNSKSQVFLKLNSLQADDTATYYCAKPNWDTYAMDFWGQGTSVTVSS
VL: DIQMTQTTSSLSASLGDRVTISCRASQDISNFLNWYQQKPDGTVKLLIYCTSKLHSGVPSRFSGSGSETDYSLTISNLEQEDIATYFCQQGNTLPPTFGGGTKLEII
notes: Mouse hybridoma antibody; also called clone 27F9; anti-ILT2 (27F9)
What is called IC50 is the concentration needed to halve the response being measured. Low values mean higher potency, high ones lower potency. A word on the Kd: it is the concentration at which binding is half-saturated. Low values mean higher affinity, high ones lower affinity. A word on the koff: it is the first-order rate constant of dissociation. Low values mean slow dissociation, high ones fast dissociation. For orientation: kon means a measure of how fast the partners come together. On to B1, for which the binding result in assay [1] is given as “no binding (tested: Log nM about 1.5 (about 30 nM))”. Besides, the binding result with soluble human ILT4-ECD [2] is reported as “no binding (tested: about 200 nM)”. In addition, the binding result with human ILT4 on cells is “no binding (tested: not given)”. The same molecule came in with an IC50 in the assay with Human ILT2-Fc of 8.9 nM. Further, the “IC50 (read off the curve)” value with soluble human ILT2-ECD [3] was roughly 9 nM. In addition, in the assay with soluble human ILT2-ECD [4], the Kd amounted to 0.26 nM, the koff is 5.4e-05 s⁻¹ and the on-rate (kon) amounted to 210000 M⁻¹ s⁻¹. The “EC50, NKL cytolytic activity against 721.221-HLA-G target cells” value with human ILT2 on cells [5] came out at 0.064 nM.

B2: anti-ILT4 antibody 47C8 (antibody, V domains shown)
VH: EVQLQQSGPDLVKPGASVKISCKASGYSFTGYYMHWVKQSHGKSLEWIGRVYPNNGDTSYNQKFKVKAILTVDKSSSTAYMELRSLTSEDSAVYYCARGATVVESLFAYWGQGTLVTVSA
VL: DIVLTQSPASLAVSLGQRATISCRASESVDNYGNNFLHWYQQKPGQPPKLLIYRTSNLESGIPARFSGSGSRTDFTLTINPVEADDVATYYCQQSNEDPYTFGGGTKLEIK
notes: Mouse hybridoma antibody
As for B2, the binding result in the assay with soluble human ILT2-ECD [6] is listed as “no binding (tested: 1.6-200 nM)”. In the assay with soluble human ILT4-ECD [7], the equilibrium dissociation constant (Kd) came to 0.074 nM, the koff came out at 2.5e-05 s⁻¹ and the kon was 340000 M⁻¹ s⁻¹.

B3: anti-ILT4 antibody 48A5 (antibody, V domains shown)
VH: QIQLVQSGPELKKPGETVKISCKASGYTFTNYGMNWVKQAPGKGLKWMGWINTYIGEPIYADDFKGRFAFSLETSASTAYLQINNLKNEDMATYFCARRSDYDGYAMDYWGQGTSVTVSS
VL: DIVMSQSPSSLAVSVGERVTMSCKSSQSLLYSGNQKNYLAWYQQKPGQSPKLLIYWASTRESGVPDRFTGSGSGTDFTLTISSVKAEDLAVYYCQQHDSYPTFGGGSRLEIK
notes: Mouse hybridoma antibody; also called clone 48A5; anti-ILT4 (48A5)
On to B3, for which the “IC50 (read off the curve)” value with soluble human ILT4-ECD [8] is roughly 20 nM. Further, the binding result is listed as “no binding (tested: about 200 nM)” with soluble human ILT2-ECD [9], “binds” with human ILT4 on cells, “no binding (tested: not given)” with human ILT2 on cells [10] and “no binding (tested: Log nM about 1.5 (about 30 nM))” in assay [11]. The molecule further registered a Kd in the assay with soluble human ILT4-ECD [7] of 0.026 nM. The same molecule came in with a koff with soluble human ILT4-ECD [7] of 2.1e-05 s⁻¹. This molecule registered a kon in the assay with soluble human ILT4-ECD [7] of 810000 M⁻¹ s⁻¹. The IC50 in the assay with Human ILT4-Fc amounted to 8.4 nM.
